B1: Regulatory protein NPR1 (Arabidopsis thaliana (Mouse-ear cress)), P93002 (parent)
chain: MDTTIDGFADSYEISSTSFVATDNTDSSIVYLAAEQVLTGPDVSALQLLSNSFESVFDSPDDFYSDAKLVLSDGREVSFHRCVLSARSSFFKSALAAAKKEKDSNNTAAVKLELKEIAKDYEVGFDSVVTVLAYVYSSRVRPPPKGVSECADENCCHVACRPAVDFMLEVLYLAFIFKIPELITLYQRHLLDVVDKVVIEDTLVILKLANICGKACMKLLDRCKEIIVKSNVDMVSLEKSLPEELVKEIIDRRKELGLEVPKVKKHVSNVHKALDSDDIELVKLLLKEDHTNLDDACALHFAVAYCNVKTATDLLKLDLADVNHRNPRGYTVLHVAAMRKEPQLILSLLEKGASASEATLEGRTALMIAKQATMAVECNNIPEQCKHSLKGRLCVEILEQEDKREQIPRDVPPSFAVAADELKMTLLDLENRVALAQRLFPTEAQAAMEIAEMKGTCEFIVTSLEPDRLTGTKRTSPGVKIAPFRILEEHQSRLKALSKTVELGKRFFPRCSAVLDQIMNCEDLTQLACGEDDTAEKRLQKKQRYMEIQETLKKAFSEDNLELGNSSLTDSTSSTSKSTGGKRSNRKLSHRRR
partner: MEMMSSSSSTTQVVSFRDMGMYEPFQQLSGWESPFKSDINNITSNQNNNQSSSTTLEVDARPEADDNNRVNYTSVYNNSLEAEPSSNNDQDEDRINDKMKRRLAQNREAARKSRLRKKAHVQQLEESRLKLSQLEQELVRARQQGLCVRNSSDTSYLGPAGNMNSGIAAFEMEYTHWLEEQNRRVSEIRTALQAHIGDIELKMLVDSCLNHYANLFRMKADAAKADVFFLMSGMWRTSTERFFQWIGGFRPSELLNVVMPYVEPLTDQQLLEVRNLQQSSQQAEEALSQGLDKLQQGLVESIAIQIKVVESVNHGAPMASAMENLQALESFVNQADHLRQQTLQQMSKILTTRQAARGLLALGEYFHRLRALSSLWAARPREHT
B2: Regulatory protein NPR1 (Arabidopsis thaliana (Mouse-ear cress)), P93002 (parent)
chain: B1 chain
partner: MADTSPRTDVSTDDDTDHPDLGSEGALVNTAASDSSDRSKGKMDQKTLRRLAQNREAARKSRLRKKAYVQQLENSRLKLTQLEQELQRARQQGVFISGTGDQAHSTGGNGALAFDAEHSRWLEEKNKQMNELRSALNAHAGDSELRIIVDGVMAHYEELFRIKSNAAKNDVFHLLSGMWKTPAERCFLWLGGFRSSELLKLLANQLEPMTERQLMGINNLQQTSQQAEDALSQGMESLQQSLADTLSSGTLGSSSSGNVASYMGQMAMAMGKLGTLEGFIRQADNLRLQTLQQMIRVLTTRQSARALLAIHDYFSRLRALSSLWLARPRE

Variants of: B1
Details: with tga3_arath TGA3, Q39234

Row | Variant | effect of a mutation on the interaction
1 | MDTTIDGFADSYEISSTSFVATDNTDSSIVYLAAEQVLTGPDVSALQLLSNSFESVFDSPDDFYSDAKLVLSDGREVSFHRCVLSARSSFFKSALAAAKKEKDSNNTAAVKLELKEIAKDYEVGFDSVVTVLAYVYSSRVRPPPKGVSEYADENCCHVACRPAVDFMLEVLYLAFIFKIPELITLYQRHLLDVVDKVVIEDTLVILKLANICGKACMKLLDRCKEIIVKSNVDMVSLEKSLPEELVKEIIDRRKELGLEVPKVKKHVSNVHKALDSDDIELVKLLLKEDHTNLDDACALHFAVAYCNVKTATDLLKLDLADVNHRNPRGYTVLHVAAMRKEPQLILSLLEKGASASEATLEGRTALMIAKQATMAVECNNIPEQCKHSLKGRLCVEILEQEDKREQIPRDVPPSFAVAADELKMTLLDLENRVALAQRLFPTEAQAAMEIAEMKGTCEFIVTSLEPDRLTGTKRTSPGVKIAPFRILEEHQSRLKALSKTVELGKRFFPRCSAVLDQIMNCEDLTQLACGEDDTAEKRLQKKQRYMEIQETLKKAFSEDNLELGNSSLTDSTSSTSKSTGGKRSNRKLSHRRR [C150Y] | decreasing interaction strength
2 | MDTTIDGFADSYEISSTSFVATDNTDSSIVYLAAEQVLTGPDVSALQLLSNSFESVFDSPDDFYSDAKLVLSDGREVSFHRCVLSARSSFFKSALAAAKKEKDSNNTAAVKLELKEIAKDYEVGFDSVVTVLAYVYSSRVRPPPKGVSECADENCCHVACRPAVDFMLEVLYLAFIFKIPELITLYQRHLLDVVDKVVIEDTLVILKLANICGKACMKLLDRCKEIIVKSNVDMVSLEKSLPEELVKEIIDRRKELGLEVPKVKKHVSNVHKALDSDDIELVKLLLKEDHTNLDDACALYFAVAYCNVKTATDLLKLDLADVNHRNPRGYTVLHVAAMRKEPQLILSLLEKGASASEATLEGRTALMIAKQATMAVECNNIPEQCKHSLKGRLCVEILEQEDKREQIPRDVPPSFAVAADELKMTLLDLENRVALAQRLFPTEAQAAMEIAEMKGTCEFIVTSLEPDRLTGTKRTSPGVKIAPFRILEEHQSRLKALSKTVELGKRFFPRCSAVLDQIMNCEDLTQLACGEDDTAEKRLQKKQRYMEIQETLKKAFSEDNLELGNSSLTDSTSSTSKSTGGKRSNRKLSHRRR [H300Y] | decreasing interaction strength

The remaining lines, values ahead:

Row | effect of a mutation on the interaction | Variant
3 | decreasing interaction strength | MDTTIDGFADSYEISSTSFVATDNTDSSIVYLAAEQVLTGPDVSALQLLSNSFESVFDSPDDFYSDAKLVLSDGREVSFHRCVLSARSSFFKSALAAAKKEKDSNNTAAVKLELKEIAKDYEVGFDSVVTVLAYVYSSRVRPPPKGVSECADENCCHVACRPAVDFMLEVLYLAFIFKIPELITLYQRHLLDVVDKVVIEDTLVILKLANICGKACMKLLDRCKEIIVKSNVDMVSLEKSLPEELVKEIIDRRKELGLEVPKVKKHVSNVHKALDSDDIELVKLLLKEDHTNLDDACALHFAVAYCNVKTATDLLKLDLADVNHRNPRGYTVLHVAAMRKESQLILSLLEKGASASEATLEGRTALMIAKQATMAVECNNIPEQCKHSLKGRLCVEILEQEDKREQIPRDVPPSFAVAADELKMTLLDLENRVALAQRLFPTEAQAAMEIAEMKGTCEFIVTSLEPDRLTGTKRTSPGVKIAPFRILEEHQSRLKALSKTVELGKRFFPRCSAVLDQIMNCEDLTQLACGEDDTAEKRLQKKQRYMEIQETLKKAFSEDNLELGNSSLTDSTSSTSKSTGGKRSNRKLSHRRR [P342S]
4 | decreasing interaction strength | MDTTIDGFADSYEISSTSFVATDNTDSSIVYLAAEQVLTGPDVSALQLLSNSFESVFDSPDDFYSDAKLVLSDGREVSFHRCVLSARSSFFKSALAAAKKEKDSNNTAAVKLELKEIAKDYEVGFDSVVTVLAYVYSSRVRPPPKGVSECADENCCHVACRPAVDFMLEVLYLAFIFKIPELITLYQRHLLDVVDKVVIEDTLVILKLANICGKACMKLLDRCKEIIVKSNVDMVSLEKSLPEELVKEIIDRRKELGLEVPKVKKHVSNVHKALDSDDIELVKLLLKEDHTNLDDACALHFAVAYCNVKTATDLLKLDLADVNHRNPRGYTVLYVAAMRKEPQLILSLLEKGASASEATLEGRTALMIAKQATMAVECNNIPEQCKHSLKGRLCVEILEQEDKREQIPRDVPPSFAVAADELKMTLLDLENRVALAQRLFPTEAQAAMEIAEMKGTCEFIVTSLEPDRLTGTKRTSPGVKIAPFRILEEHQSRLKALSKTVELGKRFFPRCSAVLDQIMNCEDLTQLACGEDDTAEKRLQKKQRYMEIQETLKKAFSEDNLELGNSSLTDSTSSTSKSTGGKRSNRKLSHRRR [H334Y]

Variants of: B2
Details: with tga2_arath TGA2, P43273

Row | Variant | effect of a mutation on the interaction
5 | MDTTIDGFADSYEISSTSFVATDNTDSSIVYLAAEQVLTGPDVSALQLLSNSFESVFDSPDDFYSDAKLVLSDGREVSFHRCVLSARSSFFKSALAAAKKEKDSNNTAAVKLELKEIAKDYEVGFDSVVTVLAYVYSSRVRPPPKGVSEYADENCCHVACRPAVDFMLEVLYLAFIFKIPELITLYQRHLLDVVDKVVIEDTLVILKLANICGKACMKLLDRCKEIIVKSNVDMVSLEKSLPEELVKEIIDRRKELGLEVPKVKKHVSNVHKALDSDDIELVKLLLKEDHTNLDDACALHFAVAYCNVKTATDLLKLDLADVNHRNPRGYTVLHVAAMRKEPQLILSLLEKGASASEATLEGRTALMIAKQATMAVECNNIPEQCKHSLKGRLCVEILEQEDKREQIPRDVPPSFAVAADELKMTLLDLENRVALAQRLFPTEAQAAMEIAEMKGTCEFIVTSLEPDRLTGTKRTSPGVKIAPFRILEEHQSRLKALSKTVELGKRFFPRCSAVLDQIMNCEDLTQLACGEDDTAEKRLQKKQRYMEIQETLKKAFSEDNLELGNSSLTDSTSSTSKSTGGKRSNRKLSHRRR [C150Y] | disrupting interaction
6 | MDTTIDGFADSYEISSTSFVATDNTDSSIVYLAAEQVLTGPDVSALQLLSNSFESVFDSPDDFYSDAKLVLSDGREVSFHRCVLSARSSFFKSALAAAKKEKDSNNTAAVKLELKEIAKDYEVGFDSVVTVLAYVYSSRVRPPPKGVSECADENCCHVACRPAVDFMLEVLYLAFIFKIPELITLYQRHLLDVVDKVVIEDTLVILKLANICGKACMKLLDRCKEIIVKSNVDMVSLEKSLPEELVKEIIDRRKELGLEVPKVKKHVSNVHKALDSDDIELVKLLLKEDHTNLDDACALYFAVAYCNVKTATDLLKLDLADVNHRNPRGYTVLHVAAMRKEPQLILSLLEKGASASEATLEGRTALMIAKQATMAVECNNIPEQCKHSLKGRLCVEILEQEDKREQIPRDVPPSFAVAADELKMTLLDLENRVALAQRLFPTEAQAAMEIAEMKGTCEFIVTSLEPDRLTGTKRTSPGVKIAPFRILEEHQSRLKALSKTVELGKRFFPRCSAVLDQIMNCEDLTQLACGEDDTAEKRLQKKQRYMEIQETLKKAFSEDNLELGNSSLTDSTSSTSKSTGGKRSNRKLSHRRR [H300Y] | disrupting interaction

The remaining lines, values ahead:

Row | effect of a mutation on the interaction | Variant
7 | disrupting interaction | MDTTIDGFADSYEISSTSFVATDNTDSSIVYLAAEQVLTGPDVSALQLLSNSFESVFDSPDDFYSDAKLVLSDGREVSFHRCVLSARSSFFKSALAAAKKEKDSNNTAAVKLELKEIAKDYEVGFDSVVTVLAYVYSSRVRPPPKGVSECADENCCHVACRPAVDFMLEVLYLAFIFKIPELITLYQRHLLDVVDKVVIEDTLVILKLANICGKACMKLLDRCKEIIVKSNVDMVSLEKSLPEELVKEIIDRRKELGLEVPKVKKHVSNVHKALDSDDIELVKLLLKEDHTNLDDACALHFAVAYCNVKTATDLLKLDLADVNHRNPRGYTVLYVAAMRKEPQLILSLLEKGASASEATLEGRTALMIAKQATMAVECNNIPEQCKHSLKGRLCVEILEQEDKREQIPRDVPPSFAVAADELKMTLLDLENRVALAQRLFPTEAQAAMEIAEMKGTCEFIVTSLEPDRLTGTKRTSPGVKIAPFRILEEHQSRLKALSKTVELGKRFFPRCSAVLDQIMNCEDLTQLACGEDDTAEKRLQKKQRYMEIQETLKKAFSEDNLELGNSSLTDSTSSTSKSTGGKRSNRKLSHRRR [H334Y]
8 | disrupting interaction | MDTTIDGFADSYEISSTSFVATDNTDSSIVYLAAEQVLTGPDVSALQLLSNSFESVFDSPDDFYSDAKLVLSDGREVSFHRCVLSARSSFFKSALAAAKKEKDSNNTAAVKLELKEIAKDYEVGFDSVVTVLAYVYSSRVRPPPKGVSECADENCCHVACRPAVDFMLEVLYLAFIFKIPELITLYQRHLLDVVDKVVIEDTLVILKLANICGKACMKLLDRCKEIIVKSNVDMVSLEKSLPEELVKEIIDRRKELGLEVPKVKKHVSNVHKALDSDDIELVKLLLKEDHTNLDDACALHFAVAYCNVKTATDLLKLDLADVNHRNPRGYTVLHVAAMRKESQLILSLLEKGASASEATLEGRTALMIAKQATMAVECNNIPEQCKHSLKGRLCVEILEQEDKREQIPRDVPPSFAVAADELKMTLLDLENRVALAQRLFPTEAQAAMEIAEMKGTCEFIVTSLEPDRLTGTKRTSPGVKIAPFRILEEHQSRLKALSKTVELGKRFFPRCSAVLDQIMNCEDLTQLACGEDDTAEKRLQKKQRYMEIQETLKKAFSEDNLELGNSSLTDSTSSTSKSTGGKRSNRKLSHRRR [P342S]
